Test system: Escherichia coli TOP10
Experiment: shrunken log2 fold change of peptide-encoding DNA abundance (4.5 h post-induction vs induction); higher = less antimicrobial activity (less host growth inhibition)
Details: time post-induction: 4.5 h; library: site-saturation at positions 5, 18, 19, 20
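Also: peptides expressed intracellularly from a pBAD plasmid library in pooled LB shake-flask culture, induced with 0.3% L-arabinose, DNA abundance read by NGS, three biological replicates, DESeq2 with apeglm shrinkage.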

| Sequence | shrunken log2 fold change |
| --- | --- |
| RRIRDRPPRLPRPRPRPITHPRP | -0.305 |
| RRIRNRPPRLPRPRPRPLDFPRP | -0.386 |
| RRIRVRPPRLPRPRPRPHDVPRP | -0.116 |
| RRIRNRPPRLPRPRPRPPVCPRP | 0.126 |
| RRIRMRPPRLPRPRPRPVIWPRP | 0.46 |
| RRIRGRPPRLPRPRPRPVRGPRP | 0.866 |
| RRIRIRPPRLPRPRPRPKRGPRP | 0.2 |
| RRIRVRPPRLPRPRPRPCEPPRP | 0.137 |
| RRIRSRPPRLPRPRPRPHRWPRP | 0.0724 |
| RRIRVRPPRLPRPRPRPRKGPRP | 0.328 |
| RRIRTRPPRLPRPRPRPTAVPRP | -0.133 |
| RRIRTRPPRLPRPRPRPPKKPRP | 0.0946 |
| RRIRGRPPRLPRPRPRPLFKPRP | 0.337 |
| RRIRMRPPRLPRPRPRPEANPRP | 3.83 |
| RRIRWRPPRLPRPRPRPWRMPRP | -0.182 |
| RRIRQRPPRLPRPRPRPCWNPRP | -0.13 |
| RRIRDRPPRLPRPRPRPDWGPRP | 0.161 |
| RRIRWRPPRLPRPRPRPGPWPRP | 0.318 |
| RRIRYRPPRLPRPRPRPQQYPRP | -1 |
| RRIRFRPPRLPRPRPRPSVCPRP | -0.16 |
| RRIRYRPPRLPRPRPRPKIFPRP | -0.297 |
| RRIRYRPPRLPRPRPRPVTYPRP | -0.41 |

| Sequence | shrunken log2 fold change |
| --- | --- |
| RRIRHRPPRLPRPRPRPLRKPRP | 0.0993 |
| RRIRKRPPRLPRPRPRPLPCPRP | 0.213 |
| RRIRNRPPRLPRPRPRPKLQPRP | 0.114 |
| RRIRCRPPRLPRPRPRPGCFPRP | 0.0804 |
| RRIRLRPPRLPRPRPRPVEMPRP | -0.0829 |
| RRIRCRPPRLPRPRPRPNVFPRP | -0.24 |
| RRIRHRPPRLPRPRPRPRDAPRP | 0.14 |
| RRIRMRPPRLPRPRPRPSIHPRP | -0.823 |
| RRIRRRPPRLPRPRPRPFAEPRP | 0.61 |
| RRIRFRPPRLPRPRPRPPMIPRP | -0.224 |
| RRIRPRPPRLPRPRPRPYTNPRP | -0.709 |
| RRIRERPPRLPRPRPRPTYHPRP | -0.407 |
| RRIRLRPPRLPRPRPRPKGAPRP | 0.379 |
| RRIRRRPPRLPRPRPRPGTQPRP | 0.0536 |
| RRIRMRPPRLPRPRPRPTGDPRP | 1.3 |
| RRIRRRPPRLPRPRPRPQDQPRP | 0.168 |
| RRIRWRPPRLPRPRPRPHRQPRP | -0.165 |
| RRIRKRPPRLPRPRPRPADDPRP | 0.799 |
| RRIRFRPPRLPRPRPRPYKAPRP | -0.153 |
| RRIRHRPPRLPRPRPRPIIPPRP | -0.197 |
| RRIRSRPPRLPRPRPRPEAHPRP | 0.16 |
| RRIRVRPPRLPRPRPRPVDGPRP | 0.021 |

| Sequence | shrunken log2 fold change |
| --- | --- |
| RRIRNRPPRLPRPRPRPKLPPRP | 0.0992 |
| RRIRDRPPRLPRPRPRPCCLPRP | -0.146 |
| RRIRNRPPRLPRPRPRPENEPRP | -0.00386 |
| RRIRHRPPRLPRPRPRPYCQPRP | -0.746 |
| RRIRKRPPRLPRPRPRPSQPPRP | 0.0235 |
| RRIRCRPPRLPRPRPRPGGWPRP | 0.656 |
| RRIRKRPPRLPRPRPRPGFQPRP | 0.138 |
| RRIRFRPPRLPRPRPRPQLIPRP | -0.313 |
| RRIRIRPPRLPRPRPRPTDLPRP | -0.289 |
| RRIRYRPPRLPRPRPRPSQLPRP | -0.506 |
| RRIRLRPPRLPRPRPRPIELPRP | 0.00435 |
| RRIRHRPPRLPRPRPRPDNHPRP | -0.323 |
| RRIRSRPPRLPRPRPRPDWPPRP | 0.149 |
| RRIRPRPPRLPRPRPRPLDHPRP | -0.114 |
| RRIRTRPPRLPRPRPRPGVEPRP | -0.0469 |
| RRIRPRPPRLPRPRPRPVPWPRP | 0.548 |
| RRIRYRPPRLPRPRPRPEFMPRP | -0.0255 |
| RRIRHRPPRLPRPRPRPDRGPRP | -0.144 |
| RRIRIRPPRLPRPRPRPFAKPRP | -0.295 |
| RRIRARPPRLPRPRPRPSTNPRP | 0.0112 |
| RRIRYRPPRLPRPRPRPHTRPRP | -0.494 |
| RRIRPRPPRLPRPRPRPCAQPRP | -0.119 |

| Sequence | shrunken log2 fold change |
| --- | --- |
| RRIRSRPPRLPRPRPRPNQGPRP | 0.153 |
| RRIRYRPPRLPRPRPRPMLKPRP | -0.374 |
| RRIRSRPPRLPRPRPRPCMIPRP | -0.389 |
| RRIRIRPPRLPRPRPRPGNLPRP | -0.175 |
| RRIRARPPRLPRPRPRPRDWPRP | 0.577 |
| RRIRGRPPRLPRPRPRPKTRPRP | 0.884 |
| RRIRARPPRLPRPRPRPDIHPRP | 0.145 |
| RRIRMRPPRLPRPRPRPRSAPRP | 1.36 |
| RRIRGRPPRLPRPRPRPWYGPRP | -0.242 |
| RRIRIRPPRLPRPRPRPMGPPRP | 0.0284 |
| RRIRTRPPRLPRPRPRPVQPPRP | 0.238 |
| RRIRRRPPRLPRPRPRPQGCPRP | -0.189 |
| RRIRCRPPRLPRPRPRPWPDPRP | 0.0862 |
| RRIRFRPPRLPRPRPRPCEQPRP | -0.00534 |
| RRIRMRPPRLPRPRPRPGSAPRP | 1.4 |
| RRIRWRPPRLPRPRPRPIQTPRP | -0.0178 |
| RRIRARPPRLPRPRPRPQQAPRP | 0.308 |
| RRIRMRPPRLPRPRPRPARPPRP | 1.09 |
| RRIRRRPPRLPRPRPRPFDNPRP | -0.241 |
| RRIRGRPPRLPRPRPRPSGHPRP | -0.202 |
| RRIRKRPPRLPRPRPRPNRQPRP | 1.09 |
| RRIRGRPPRLPRPRPRPSIFPRP | 0.415 |

| Sequence | shrunken log2 fold change |
| --- | --- |
| RRIRTRPPRLPRPRPRPPSDPRP | 0.498 |
| RRIRCRPPRLPRPRPRPQHQPRP | -0.145 |
| RRIRVRPPRLPRPRPRPIGDPRP | 0.0238 |
| RRIRMRPPRLPRPRPRPNDCPRP | -0.00865 |
| RRIRMRPPRLPRPRPRPSLNPRP | -0.0544 |
| RRIRMRPPRLPRPRPRPVYVPRP | -0.161 |
| RRIRDRPPRLPRPRPRPKWIPRP | -0.0438 |
| RRIRIRPPRLPRPRPRPSDVPRP | -0.838 |
| RRIRPRPPRLPRPRPRPTLAPRP | 0.332 |
| RRIRCRPPRLPRPRPRPHWRPRP | 0.382 |
| RRIRRRPPRLPRPRPRPENNPRP | 0.0497 |
| RRIRSRPPRLPRPRPRPWMRPRP | 0.709 |
| RRIRWRPPRLPRPRPRPWYMPRP | -0.885 |
| RRIRVRPPRLPRPRPRPGIQPRP | 0.0729 |
| RRIRSRPPRLPRPRPRPMQHPRP | -0.122 |
| RRIRRRPPRLPRPRPRPNVWPRP | 1.99 |
| RRIRMRPPRLPRPRPRPSSGPRP | 0.0493 |
| RRIRKRPPRLPRPRPRPKMYPRP | -0.0411 |
| RRIRNRPPRLPRPRPRPEMLPRP | 0.0345 |
| RRIRDRPPRLPRPRPRPPQFPRP | -0.15 |
| RRIRRRPPRLPRPRPRPLNMPRP | -0.126 |
